# Test results reported in patent publication US6528620B1, “Sid-polyamide fusions: a potent method of regulating gene expression” (University of Utah Research Foundation, priority 1999, dated 2003).
# Residue numbers refer to the chain shown, from its start. In names and notes the source's numbering stands. Where no end group is shown, it is not given here.
# B1: fusion between the first 35 amino acids of Mad1 and the GALDBD: first 35 amino acids of Mad1 fused to the GAL4 DNA binding domain (protein)
# chain: MKLLSSIEQACDICRLKKLKCSKEKPKCAKCLKNNWECRYSPKTKRSPLTRAHLTEVESRLERLEQLFLLIFPREDLDMILKMDSLQDIKALLTGLFVQDNVNKDAVTDRLASVETDMPLTLRQHRISATSSSEESSNKGQRQLTVSMAAAVRMNIQMLLEAADYLERREREAEHGYASMLP
# B2: Mad1(L12P/A16P)His (other, human, UniProt Q05195 1-221, looked up)
# chain: MAAAVRMNIQMPLEAPDYLERREREAEHGYASMLPYNNKDRDALKRRNKSKKNNSSSRSTHNEMEKNRRAHLRLCLEKLKGLVPLGPESSRHTTLSLLTKAKLHIKKLEDCDRKAVHQIDQLQREQRHLKRQLEKLGIERIRMDSIGSTVSSERSDSDREEIDVDVESTDYLTGDLDWSSSSVSDSDERGSMQSLGSDEGYSSTSIKRIKLQDSHKACLGL
# modifications: 35S-methionine labelled (in vitro translated)
# notes: Mutant Mad1 probe in the far Western blot; not shown: polyhistidine tag fused to the carboxyl terminus
# B3: Mad1(L12P/A16P)His: polyhistidine-tagged mutant Mad1 protein with L12P/A16P point mutations in the SID (protein)
# chain: B2 chain
# modifications: left off: small tags and cut ends
# notes: polyhistidine-tagged mutant Mad1 protein with L12P/A16P point mutations in the SID
# B4: Mad1His: in vitro translated 35S-labeled Mad1 with a polyhistidine tag fused to its carboxyl terminus (protein)
# chain: B2 chain with P12L, P16A
# modifications: left off: small tags and cut ends
# notes: in vitro translated 35S-labeled Mad1 with a polyhistidine tag fused to its carboxyl terminus
# B5: VP16PAH2 (amino acids 251-404 of mSin3A encoding the PAH2 domain fused to the VP16 activation domain) (other)
# chain: SKPSQLQAHTPASQQTPPLPPYASPRSPPVQPHTPVTISLGTAPSLQNNQPVEFNHAINYVNKIKNRFQGQPDIYKAFLEILHTYQKEQRNAKEAGGNYTPALTEQEVYAQVARLFKNQEDLLSEFGQFLPDANSSVLLSKTTAEKVDSVRNDH
# notes: range 251-404; Prey of the directed two-hybrid assay in S. cerevisiae L40
# B6: LexA fused to SID 1-27 (other)
# chain: MKALTARQQEVFDLIRDHISQTGMPPTRAEIAQRLGFRSPNAAEEHLKALARKGVIEIVSGASRGIRLLQEEEEGLPLVGRVAAGEPLLAQQHIEGHYQVDPSLFKPNADFLLRVSGMSMKDIGIMDGDLLAVHKTQDVRNGQVVVARIDDEVTVKRLKKQGNKVELLPENSEFKPIVVDLRQQSFTIEGLAVGVIRNGDWLMAAAVRMNIQMLLEAADYLERREREAE
# notes: Carboxyl-terminal deletion of 30 amino acids from SID 1-57
# B7: GALSID(8-20) WT: amino acids 8-20 from Mad1 fused to the GAL4 DNA binding domain (protein)
# chain: MKLLSSIEQACDICRLKKLKCSKEKPKCAKCLKNNWECRYSPKTKRSPLTRAHLTEVESRLERLEQLFLLIFPREDLDMILKMDSLQDIKALLTGLFVQDNVNKDAVTDRLASVETDMPLTLRQHRISATSSSEESSNKGQRQLTVSNIQMLLEAADYLE
# Tests used:
# [1] = target: mSin3-HDAC corepressor complex; experiment: cell-based or functional assay
# [2] = tested on: GAL4 DNA binding domain-responsive reporter; experiment: Transcription assay, Gal4-14D luciferase reporter in 293 cells; format: cell-based; conditions: relative to the GALDBD alone level, 24 h after transfection
# Method: Transcription Assays—293 cells were grown in Dulbecco's modified Eagle's medium with 10% defined calf serum (HyClone). 2×10^5 cells were planted on 60-mm dishes and transfected with 200 ng of the Gal4-14D luciferase reporter (Ayer et al., Mol. Cell Biol. 16:5772-5781 (1996)) and 1 μg of the indicated expression vector. Cells harvested 24 h after transfection and luciferase and β-galactosidase activity measured according to the manufacturers' protocols (Promega and Tropix). Each transfection was performed at least twice in triplicate. Error shown is the standard of the mean.
# To test whether this minimal thirteen residue interaction domain is sufficient to target a functional mSin3:HDAC corepressor complex to DNA, we fused amino acids 8-20 from Mad1 to the DNA binding domain of the yeast transcriptional activator GAL4 (GALDBD). The transcriptional activity of GALSID(8-20) WT was tested on a reporter containing four GAL4 binding sites cloned upstream of a minimal promoter (FIG. 6A). Consistent with our previous findings (Ayer et al., Mol. Cell. Biol. 16:5772-5781 (1996)), the GALDBD alone activates this reporter approximately 3-fold, and a fusion between the first 35 amino acids of Mad1 and the GALDBD repressed this level of reporter activity approximately 7-fold. […] Amino acids 10, 14, and 17 of the SID can be mutated to alanine without adversely affecting the interaction with PAH2 (FIG. 3). However, it is possible that these residues constitute a surface that interacts with other components of the mSin3-HDAC complex and/or components of the general transcriptional machinery. To test whether mutation of these residues may impair the ability of the SID to recruit a functional corepressor complex, we constructed a minimal SID containing the mutations Q10A, E14A, and D17A in the context of a GALDBD fusion (FIG. 6A).
# [3] = target: T1, GST-PAH2, a GST fusion to the PAH2 domain of mSIN3A (UniProt P08515 1-218 = GST; Q60520 300-383); experiment: far Western blot, probe purified under native conditions
# T1 construct: Expressed in bacteria, resolved by SDS-PAGE and immobilised on PVDF membrane
# Method: Recombinant GST and GST-PAH2 were expressed in bacteria and purified on glutathione-Sepharose 4B (Amersham Pharmacia Biotech). […] The blots were blocked in far Western Buffer (PBS containing 0.1% Nonidet P-40, 1 mM EDTA, and 1 mM dithiothreitol) containing 5% nonfat dry milk for 1 h at 4° C. Purified probes were added to blots in 5 ml of far Western buffer containing 1% nonfat dry milk and incubated together at 4° C. overnight with rocking. Following washing with far Western buffer, the blots were air-dried and exposed 48 h for autoradiography.
# GST = target: T2, GST (Schistosoma japonicum, UniProt P08515); experiment: Far Western blot, 35S-labeled Mad1 probes on immobilized GST alone; format: binding; conditions: probe purified under denaturing conditions
# T2 construct: made in house; host or cells: bacteria
# T2 sequence (P08515 whole entry): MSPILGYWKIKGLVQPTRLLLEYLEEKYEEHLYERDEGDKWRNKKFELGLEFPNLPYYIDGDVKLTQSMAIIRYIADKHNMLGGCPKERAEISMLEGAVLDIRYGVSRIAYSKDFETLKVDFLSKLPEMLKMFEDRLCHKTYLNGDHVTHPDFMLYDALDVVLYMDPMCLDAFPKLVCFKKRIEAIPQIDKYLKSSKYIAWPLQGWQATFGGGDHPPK
# Method: Far Western Blotting—Mad1His and Mad1(L12P/A16P)His (Ayer et al., Cell 80:767-776 (1995)), which have a polyhistidine tag fused to their carboxyl termini, were translated in vitro in 50 μl reactions using the TNT coupled reticulocyte lysate system (Promega) and ^35[S]methionine (NEN Life Science Products) and were purified under native or denaturing conditions. Ni^2+-NTA agarose (Qiagen) was blocked with rabbit reticuocyte lysate (diluted 1:3 in PBS) for 30 min at 4° C. and then incubated with the in vitro synthesized Mad1His and Mad1(L12P/A16P)His for 30 min at 4° C. in PBS native or 6 M guanidine hydrochloride, 0.1 M NaH2PO4, and 0.01 M Tris, pH 8.0 (denaturating conditions) followed by extensive washing with the same buffers. The bound proteins were eluted in PBS containing 0.5 M imidazole and then dialyzed overnight against PBS to remove the imidazole and allow for renaturation. Recombinant GST and GST-PAH2 were expressed in bacteria and purified on glutathione-Sepharose 4B (Amersham Pharmacia Biotech). The blots were prepared by resolving 1 μg of GST-PAH2 on 15% SDS-PAGE, followed by transfer to PVDF membrane. The blots were blocked in far Western Buffer (PBS containing 0.1% Nonidet P-40, 1 mM EDTA, and 1 mM dithiothreitol) containing 5% nonfat dry milk for 1 h at 4° C. […]
# [4] = target: T3, PAH2 domain of mSin3A (GST-PAH2) (Mus musculus, UniProt Q60520); experiment: Far Western blot, 35S-labeled Mad1 probes on immobilized GST-PAH2; format: binding, mammalian
# T3 construct: GST-PAH2, a GST fusion to the PAH2 domain of mSIN3A; made in house; host or cells: bacteria
# T3 sequence (Q60520 300-383 limits assumed): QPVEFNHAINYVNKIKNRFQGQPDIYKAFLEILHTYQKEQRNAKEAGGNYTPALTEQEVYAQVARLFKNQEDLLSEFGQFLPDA
# Method: Far Western Blotting—Mad1His and Mad1(L12P/A16P)His (Ayer et al., Cell 80:767-776 (1995)), which have a polyhistidine tag fused to their carboxyl termini, were translated in vitro in 50 μl reactions using the TNT coupled reticulocyte lysate system (Promega) and ^35[S]methionine (NEN Life Science Products) and were purified under native or denaturing conditions. Ni^2+-NTA agarose (Qiagen) was blocked with rabbit reticuocyte lysate (diluted 1:3 in PBS) for 30 min at 4° C. and then incubated with the in vitro synthesized Mad1His and Mad1(L12P/A16P)His for 30 min at 4° C. in PBS native or 6 M guanidine hydrochloride, 0.1 M NaH2PO4, and 0.01 M Tris, pH 8.0 (denaturating conditions) followed by extensive washing with the same buffers. The bound proteins were eluted in PBS containing 0.5 M imidazole and then dialyzed overnight against PBS to remove the imidazole and allow for renaturation. Recombinant GST and GST-PAH2 were expressed in bacteria and purified on glutathione-Sepharose 4B (Amersham Pharmacia Biotech). The blots were prepared by resolving 1 μg of GST-PAH2 on 15% SDS-PAGE, followed by transfer to PVDF membrane. The blots were blocked in far Western Buffer (PBS containing 0.1% Nonidet P-40, 1 mM EDTA, and 1 mM dithiothreitol) containing 5% nonfat dry milk for 1 h at 4° C. Purified probes were added to blots in 5 ml of far Western buffer containing 1% nonfat dry milk and incubated together at 4° C. overnight with rocking. Following washing with far Western buffer, the blots were air-dried and exposed 48 h for autoradiography.
# To determine whether the interaction between Mad1 and mSin3A is direct, we used far Western blot assays. In these experiments GST-PAH2, a GST fusion to the PAH2 domain of mSIN3A, and GST alone were resolved by SDS-PAGE followed by transfer to a PVDF membrane. […] Equal efficiency of transcription and translation of these proteins was confirmed by SDS-PAGE followed by autoradiography to detect the proteins (data not shown). These protein probes were purified on Ni^2+-NTA agarose under native or denaturing conditions. […]
# [5] = target: T4, LexA fused to amino acids 1-57 of Mad1 (bacterial; human, UniProt P0A7C2 1-202; Q05195 1-57); experiment: directed yeast two-hybrid assay (LexA-SID with VP16PAH2, beta-galactosidase)
# T4 construct: also called SID 1-57
# T4 sequence: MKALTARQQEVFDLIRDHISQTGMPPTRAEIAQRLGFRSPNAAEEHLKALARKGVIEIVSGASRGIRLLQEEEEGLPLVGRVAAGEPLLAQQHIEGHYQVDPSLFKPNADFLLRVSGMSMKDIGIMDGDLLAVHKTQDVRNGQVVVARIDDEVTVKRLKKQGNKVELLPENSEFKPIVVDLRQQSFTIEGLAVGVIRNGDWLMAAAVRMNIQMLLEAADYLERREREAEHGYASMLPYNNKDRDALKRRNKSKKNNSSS
# [6] = target: T5, LexA fused to amino acids 8-20 of wildtype Mad1 (bacterial; human, UniProt P0A7C2 1-202); experiment: as above
# T5 construct: also called SID 8-20; minimal SID
# T5 sequence: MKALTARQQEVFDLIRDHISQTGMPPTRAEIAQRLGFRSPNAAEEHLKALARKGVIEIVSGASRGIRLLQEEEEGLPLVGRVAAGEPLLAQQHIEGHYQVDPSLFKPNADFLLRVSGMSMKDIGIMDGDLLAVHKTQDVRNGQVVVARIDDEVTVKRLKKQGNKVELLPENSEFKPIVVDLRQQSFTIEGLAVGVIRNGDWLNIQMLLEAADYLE
# [7] = target: B5; experiment: as above
# [8] = probe purified under denaturing conditions and renatured
molecule,measurement,setting,value
fusion between the first 35 amino acids of Mad1 and the GALDBD (from UniProt P04386 1-147; Q05195 1-35),repression of a GAL4 DNA binding domain-responsive luciferase reporter in 293 cells,[1],7 fold
"GALSID Q10A, E14A, D17A: minimal SID containing the mutations Q10A, E14A, and D17A in the context of a GALDBD fusion (NIAMLLAAAAYLE; also: GAL4 DNA binding domain fusion; UniProt Q05195 8-20, looked up, variant Q10A E14A D17A)",repression of reporter activity,[2],repressed transcription to the same extent as the wild-type minimal SID
B1,repression of reporter activity,[2],approximately 7 fold
B2,binding result,[3],no binding
B3,interaction with GST alone,GST,did not interact
same,interaction with GST-PAH2,[4]; [8],did not interact
B4,interaction with GST alone,GST,not with GST alone
same,interaction with GST-PAH2,[4]; [8],also interacted with GST-PAH2
same,interaction with GST-PAH2,[4]; probe purified under native conditions,able to interact
B5,binding result,[5],binds
same,binding result,[6],binds
B6,fold better binding than SID 1-57 (relative beta-galactosidase activity),[7],~2 fold
B7,repression of reporter activity,[2],repressed transcription to approximately the same level
same,repression of reporter activity,[2]; listed as minimal thirteen amino acid SID,functions similarly to the longer 35-amino acid SID
